This assay deals with Ca^2+/CaM. In words: gel mobility shift assay of BR biosynthetic proteins. The conditions noted are these: FIG. 5. Type of assay: binding, potato. An excerpt:
PCM1: potato calmodulin 1; PCM6: potato calmodulin 6. Sequences of respective CaMBD are also shown: N-DWF4 (SEQ ID NO:18); C-DWF4 (SEQ ID NO:19); CPD (SEQ ID NO:17); and DWF5 (SEQ ID NO:20).
DWF1Ca^2+ is an important second messenger and an integral part of the cellular signalling system in plants^5,29. Applicants were thus prompted to survey the CaM-binding properties of other proteins involved in brassinosteroid biosynthesis.

This note sets out measurements from patent US20070089183A1, “Size and/or growth engineering by modulation of the interaction between calmodulin, and brassinosteroid biosynthetic enzymes and orthologs therof” (Washington State University, priority 2005, published 2007).

B1: CPD: Arabidopsis CPD (AT5G05690), cytochrome P450 90A1 (protein, listed as Arabidopsis thaliana)
chain: MAFTAFLLLLSSIAAGFLLLLRRTRYRRMGLPPGSLGLPLIGETFQLIGAYKTENPEPFIDERVARYGSVFMTHLFGEPTIFSADPETNRFVLQNEGKLFECSYPASICNLLGKHSLLLMKGSLHKRMHSLTMSFANSSIIKDHLMLDIDRLVRFNLDSWSSRVLLMEEAKKITFELTVKQLMSFDPGEWSESLRKEYLLVIEGFFSLPLPLFSTTYRKAIQARRKVAEALTVVVMKRREEEEEGAERKKDMLAALLAADDGFSDEEIVDFLVALLVAGYETTSTIMTLAVKFLTETPLALAQLKEEHEKIRAMKSDSYSLEWSDYKSMPFTQCVVNETLRVANIIGGVFRRAMTDVEIKGYKIPKGWKVFSSFRAVHLDPNHFKDARTFNPWRWQSNSVTTGPSNVFTPFGGGPRLCPGYELARVALSVFLHRLVTGFSWVPAEQDKLVFFPTTRTQKRYPIFVKRRDFAT
For B1, the “Ca^2+/CaM binding” value is “Ca^2+/CaM-binding proteins”.
